Each block holds one molecule with its values, some of them ahead of it.
Assays:
PRL-3 = target: T1, PRL-3 (Homo sapiens, UniProt O75365); test: In vitro PTPase assay, recombinant PRL-3; type: biochemical; conditions: DiFMUP substrate
T1 construct: made in house; host or cells: E. coli DH5a
Source text: Sodium stibogluconate, suramin, sodium orthovanadate and GST fusion protein of SHP-1 have been described previously (Pathak et al., J. Imumol. 167, 3391 (2001)). Meglumine antimonate was obtained from Aventis. cDNAs of human PRL-1, PRL-2 and PRL-3 coding region were derived by RT-PCR from H9 cells (Safai, et al., Lancet 1, 1438 (1984)) and inserted in frame into the pGEX vector. cDNA of PRL-1R86 was generated by recombinant DNA technique using PRL-1 cDNA as template following established procedures (Jiao, et al., Mol. Cell. Biol. 16, 6985 (1996)). GST fusion proteins of the PRL phosphatases were prepared from DH5a bacteria transformed with the pGEX fusion protein constructs as described previously (Yi, et al., Mol. Cell. Biol. 12, 836 (1992)). cDNAs encoding the PRLs tagged at the N-termini with the Flag epitope (Castrucci, et al., J. Virol. 66, 4647 (1992)) were generated via recombinant DNA technique, sequenced to confirm their identities and cloned into the pBabepuro vector (Yang, et al., Blood 91, 3746 (1998)). Anti-Flag monoclonal antibody (M2, Sigma) was purchased from a commercial source. A synthetic phosphotyrosine peptide (Arg-Arg-Leu-Ile-Glu-Asp-Ala-Gle-Tyr-Al- -a-Ala-Arg-Gly (SEQ ID NO: 3), wherein the tyrosine is phosphorylated; UBI) and DiFMUP (6,8-difluoro-4-methylumbelliferyl phosphate, Molecular Probes) were purchased as substrates for PTPase assays.
(§1) In vitro PTPase assays were used to determine the effects of compounds on recombinant PTPases, following established procedures using a synthetic phosphotyrosine peptide or DiFMUP as the substrate (Pathak et al., J. Imumol. 167, 3391 (2001)). Briefly, individual PTPases (0.1 µg/reaction) in 50 µL of PTPase buffer (50 mM Tris, pH 7.4) were incubated at 22° C. for 10 minutes or as indicated in the absence or presence of inhibitory compounds. Substrates (0.2 mM phosphotyrosine peptide) were then added and allowed to react at 22° C. for 18 hrs. PTPase activity of individual reactions was measured by adding 100 µL of malachite green solution (UBI) and then quantifying the amounts of free phosphate cleaved by the PTPase from the peptide substrate by spectrometry (OD660 nm). PTPase assays using DiFMUP as a substrate were conducted following a previously described procedure (Matter, et al., Biochem. Biophys. Res. Comm. 283, 1061 (2001)). Relative PTPase activities were calculated based on the formula: (PTPase activity in the presence of an inhibitory compound/PTPase activity in the absence of the compound)× 100%. To assess the reversibility of PTPase inhibition, GST fusion proteins of the PTPases bound on glutathione beads (Pharmacia) were pre-incubated with cold Tris buffer (50 mM Tris, pH 7.0) or Tris buffer containing the inhibitor at 4° C. for 30 minutes. The beads were then washed three times in cold Tris buffer or not washed prior to subjecting to in vitro PTPase assays.

[1] = system: T2, synthetic phosphotyrosine peptide Arg-Arg-Leu-Ile-Glu-Asp-Ala-Gle-Tyr-Ala-Ala-Arg-Gly, wherein the tyrosine is phosphorylated
T2 sequence: RRLIEDAEYAARG

SHP-1 = target: T3, SHP-1 (Mus musculus, UniProt P29351); test: In vitro PTPase assay, GST/SHP-1; type: biochemical
T3 construct: made in house
Procedure: In vitro PTPase activities were measured using the commercial protein tyrosine phosphatase assay kit (Upstate Biotechnology, Inc. (“UBI”)) following established procedure known to one of skill in the art. […] Briefly, 0.01 µg of GST/PTPase fusion proteins was incubated in 50 µl of Tris buffer (10 mM Tris, pH 7.4) containing different concentrations of inhibitors or chemicals (0-1,000 µg/ml) at 22° […] 100 µl of Malachite Green solution was added and incubated for 5 minutes, and the absorbance at 660 nm was measured after 5 minutes.
To assess the reversibility of inhibition of SHP-1 by PTPase inhibitors, GST/SHP-1 fusion protein bound on glutathione beads were pre-incubated in cold Tris buffer or Tris buffer containing the PTPase inhibitors at 4° C. for 30 minutes. The beads were then either subjected to in vitro PTPase assays or washed 3 times in Tris buffer then subjected to in vitro PTPase assays.
as §1, with “Briefly,” for “In vitro PTPase assays were used to determine the effects of compounds on recombinant PTPases, following established procedures using a synthetic phosphotyrosine peptide or DiFMUP as the substrate (Pathak et al., J. Imumol. 167, 3391 (2001)). Briefly,”, “PTPase assays using DiFMUP as a substrate were conducted following a previously described procedure (Matter, et al., Biochem. Biophys. Res. Comm. 283, 1061 (2001)).” left out

MKP1 = target: T4, MKP1 (Homo sapiens, UniProt P28562); test: In vitro PTPase assay, GST/MKP1; type: biochemical; conditions: section VII comparison
T4 construct: made in house; host or cells: E. coli DH5a
T4 sequence (P28562 13-367 limits assumed): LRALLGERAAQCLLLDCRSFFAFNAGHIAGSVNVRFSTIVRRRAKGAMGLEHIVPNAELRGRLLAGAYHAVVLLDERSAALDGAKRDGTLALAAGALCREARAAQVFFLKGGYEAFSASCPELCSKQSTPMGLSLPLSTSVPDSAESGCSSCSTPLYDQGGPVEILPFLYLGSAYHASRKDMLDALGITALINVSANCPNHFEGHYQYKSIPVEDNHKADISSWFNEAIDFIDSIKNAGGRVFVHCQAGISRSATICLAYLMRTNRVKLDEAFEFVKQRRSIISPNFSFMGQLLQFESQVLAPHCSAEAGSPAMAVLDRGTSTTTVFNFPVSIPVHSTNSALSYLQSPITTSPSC
Procedure: In vitro PTPase activities were measured using the commercial protein tyrosine phosphatase assay kit (Upstate Biotechnology, Inc. (“UBI”)) following established procedure known to one of skill in the art. This assay measures the in vitro dephosphorylation of a synthetic phosphotyrosine peptide of the sequence Arg-Arg-Leu-Ile-Glu-Asp-Ala-Gle-T- -yr-Ala-Ala-Arg-Gly, wherein the tyrosine is phosphorylated (SEQ ID NO: 3). Briefly, 0.01 µg of GST/PTPase fusion proteins was incubated in 50 µl of Tris buffer (10 mM Tris, pH 7.4) containing different concentrations of inhibitors or chemicals (0-1,000 µg/ml) at 22° C. for 10 minutes, followed by addition of 0.2 mM of the phosphotyrosine peptide and incubation at 22° C. for 18 hours. 100 µl of Malachite Green solution was added and incubated for 5 minutes, and the absorbance at 660 nm was measured after 5 minutes.
(§2) In vitro PTPase assays were used to determine the effects of levamisole (Sigma), pentamidine (American Pharmaceutical Partners, Inc.), and ketoconazole (Sigma) on recombinant PTPases, following established procedures (Pathak et al., J. Imumol. 167, 3391 (2001); Pathak et al., Leukemia 16, 2285 (2002), Yi et al., J. Immunol. 169, 5978 (2002)) using a synthetic phosphotyrosine peptide or DiFMUP as the substrate as detailed above in section I.A.2.

GSTm8 = test: In vitro PTPase assay, GSTm8; type: biochemical; conditions: 3-4 μg/ml or 10-100 μg/ml
Source text: as §2

[2] = target: T5, synthetic phosphotyrosine peptide Arg-Arg-Leu-Ile-Glu-Asp-Ala-Gle-Tyr-Ala-Ala-Arg-Gly, wherein the tyrosine is phosphorylated
T5 chain: RRLIEDAEYAARG

T1 sequence (O75365 whole entry): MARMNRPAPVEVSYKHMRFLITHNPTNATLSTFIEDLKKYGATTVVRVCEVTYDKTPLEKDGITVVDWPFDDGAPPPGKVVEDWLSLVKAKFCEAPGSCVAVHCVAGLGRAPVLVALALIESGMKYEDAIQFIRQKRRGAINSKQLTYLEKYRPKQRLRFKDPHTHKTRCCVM

Molecule: [Na+].[Na+].[Na+].[O]=[V]([O-])([O-])[O-] [sodium orthovanadate]
- inhibition of PRL-3 compared with sodium stibogluconate (PRL-3): less effective

Molecule: GST fusion protein of SHP-1
- PTPase activity against the peptide substrate (660 nm absorbance, malachite green) [1]: 660 nm absorbance approximately 0.6 above background (0.03)

Molecule: GST fusion protein of mitogen-activated protein kinase phosphatase 1 (MKP1)
- PTPase activity against the peptide substrate (660 nm absorbance, malachite green) [1]: 660 nm absorbance approximately 0.6 above background (0.03)

- inhibition of SHP-1 compared with sodium stibogluconate (SHP-1; comparable conditions): less effective
- inhibition of PRL-3 compared with sodium stibogluconate (PRL-3): less effective
Molecule: Cc1ccc(C(=O)Nc2ccc(S(=O)(=O)O)c3cc(S(=O)(=O)O)cc(S(=O)(=O)O)c23)cc1NC(=O)c1cccc(NC(=O)Nc2cccc(C(=O)Nc3cc(C(=O)Nc4ccc(S(=O)(=O)O)c5cc(S(=O)(=O)O)cc(S(=O)(=O)O)c45)ccc3C)c2)c1 [Suramin]
- inhibition of GST/SHP-1 after washing (reversibility) (SHP-1; pre-incubated with inhibitor, beads washed): almost completely removed by the washing process

- inhibitory activity against SHP-1 (SHP-1; 3-4 μg/ml or 10-100 μg/ml): no obvious inhibitory activity
- inhibition of MKP1 (MKP1): substantial inhibition
- inhibitory activity against GSTm8 (GSTm8): no obvious inhibitory activity
Molecule: c1ccc([C@H]2CN3CCSC3=N2)cc1 [levamisole]

Molecule: GST fusion protein of protein tyrosine phosphatase 1B (PTP1B)
- PTPase activity against the peptide substrate (660 nm absorbance, malachite green) [1]: 660 nm absorbance approximately 0.6 above background (0.03)

Molecule: GST fusion protein of SHP-2
- PTPase activity against the peptide substrate (660 nm absorbance, malachite green) [1]: 660 nm absorbance approximately 0.6 above background (0.03)

B1: GST fusion protein of PRL-1R86 (protein)
chain: MARMNRPAPVEVTYKNMRFLITHNPTNATLNKFIEELKKYGVTTIVRVCEATYDTTLVEKEGIHVLDWPFDDGAPPSNQIVDDWLRLVKIKFREEPGCCIAVHCVAGLGRAPVLVALALIEGGMKYEDAVQFIRQKRRGAFNSKQLLYLEKYRPKMRLRFKDSNGHRNNCCIQ
- in vitro PTPase activity [2]: showed in vitro PTPase activity similar to that of wild type PRL-1

B2: Flag-PRL-1 (protein)
chain: MARMNRPAPVEVTYKNMRFLITHNPTNATLNKFIEELKKYGVTTIVRVCEATYDTTLVEKEGIHVLDWPFDDGAPPSNQIVDDWLSLVKIKFREEPGCCIAVHCVAGLGRAPVLVALALIEGGMKYEDAVQFIRQKRRGAFNSKQLLYLEKYRPKMRLRFKDSNGHRNNCCIQ
- PTPase activity of anti-Flag immunocomplexes (NIH3T3 transfectants) [2]: a markedly higher PTPase activity (about 23 folds) over that of control transfectants
- phosphatase activity of anti-Flag immunocomplexes (WM9 transfectants) [2]: showed phosphatase activities well above the background activity of the vector control cells

B3: Flag-PRL-1R86 (protein)
chain: MARMNRPAPVEVTYKNMRFLITHNPTNATLNKFIEELKKYGVTTIVRVCEATYDTTLVEKEGIHVLDWPFDDGAPPSNQIVDDWLRLVKIKFREEPGCCIAVHCVAGLGRAPVLVALALIEGGMKYEDAVQFIRQKRRGAFNSKQLLYLEKYRPKMRLRFKDSNGHRNNCCIQ
- phosphatase activity of anti-Flag immunocomplexes (WM9 transfectants) [2]: showed phosphatase activities well above the background activity of the vector control cells

Reference: US20080089860A1, “Therapeutic compositions and methods useful in treating cancer” (priority 2006, published 2008)
